The record followed here is IntAct's records for PubMed 24671035.

The labels stand for the following.
B1: FUN14 domain-containing protein 1 (Homo sapiens), Q8IVP5 (parent)
chain: MATRNPPPQDYESDDDSYEVLDLTEYARRHQWWNRVFGHSSGPMVEKYSVATQIVMGGVTGWCAGFLFQKVGKLAATAVGGGFLLLQIASHSGYVQIDWKRVEKDVNKAKRQIKKRANKAAPEINNLIEEATEFIKQNIVISSGFVGGFLLGLAS
B2: FUN14 domain-containing protein 1 (Homo sapiens), Q8IVP5 (parent)
chain: B1 chain
partner: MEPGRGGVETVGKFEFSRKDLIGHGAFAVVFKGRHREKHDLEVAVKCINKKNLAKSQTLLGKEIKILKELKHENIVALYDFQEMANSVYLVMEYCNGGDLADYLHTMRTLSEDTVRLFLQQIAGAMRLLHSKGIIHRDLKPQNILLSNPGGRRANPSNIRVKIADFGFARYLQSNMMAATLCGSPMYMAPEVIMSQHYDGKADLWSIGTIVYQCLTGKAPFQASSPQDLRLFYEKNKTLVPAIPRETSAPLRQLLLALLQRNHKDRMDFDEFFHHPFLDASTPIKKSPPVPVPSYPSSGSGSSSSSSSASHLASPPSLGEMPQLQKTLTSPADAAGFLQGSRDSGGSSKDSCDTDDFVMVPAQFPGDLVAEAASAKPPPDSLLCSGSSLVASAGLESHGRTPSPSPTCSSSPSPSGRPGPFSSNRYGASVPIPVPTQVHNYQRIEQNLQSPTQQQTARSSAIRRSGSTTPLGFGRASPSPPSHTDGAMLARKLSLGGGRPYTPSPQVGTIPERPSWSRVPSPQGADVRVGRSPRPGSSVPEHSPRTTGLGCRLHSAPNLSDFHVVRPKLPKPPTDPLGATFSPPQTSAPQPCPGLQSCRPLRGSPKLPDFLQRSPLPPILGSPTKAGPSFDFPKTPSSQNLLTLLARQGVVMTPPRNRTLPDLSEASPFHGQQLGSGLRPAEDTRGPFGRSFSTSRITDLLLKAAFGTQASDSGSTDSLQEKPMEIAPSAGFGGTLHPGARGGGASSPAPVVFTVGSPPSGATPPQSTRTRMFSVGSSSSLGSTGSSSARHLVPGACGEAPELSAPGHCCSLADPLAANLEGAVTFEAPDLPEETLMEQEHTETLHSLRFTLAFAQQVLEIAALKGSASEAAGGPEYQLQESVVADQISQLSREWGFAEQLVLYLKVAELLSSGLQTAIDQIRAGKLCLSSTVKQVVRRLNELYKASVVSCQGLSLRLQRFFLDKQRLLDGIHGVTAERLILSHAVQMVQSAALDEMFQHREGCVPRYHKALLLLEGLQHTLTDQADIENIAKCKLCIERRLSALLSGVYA

Variants of B1 are the subject of the first test. The note with it: with mlp3b_human MAP1LC3B.
In the case of S17A, the “effect of a mutation on the interaction” value is given as “decreasing interaction”.

Another test covers variants of B1. The note with it: with mlp3b_human MAP1LC3B. This is another data set of the same source.
On to S17D, for which the “effect of a mutation on the interaction” value is recorded as “increasing interaction”.

The variants in another test derive from B2. The note with it: with ulk1_mouse Ulk1, O70405.
For the variant N118A, the “effect of a mutation on the interaction” value is “disrupting interaction”.
